Assay in all cases: cell-based or functional assay
Assay [1] has as its target T1, LKB1(h) (human) (UniProt Q15831).
T1 sequence (looked up): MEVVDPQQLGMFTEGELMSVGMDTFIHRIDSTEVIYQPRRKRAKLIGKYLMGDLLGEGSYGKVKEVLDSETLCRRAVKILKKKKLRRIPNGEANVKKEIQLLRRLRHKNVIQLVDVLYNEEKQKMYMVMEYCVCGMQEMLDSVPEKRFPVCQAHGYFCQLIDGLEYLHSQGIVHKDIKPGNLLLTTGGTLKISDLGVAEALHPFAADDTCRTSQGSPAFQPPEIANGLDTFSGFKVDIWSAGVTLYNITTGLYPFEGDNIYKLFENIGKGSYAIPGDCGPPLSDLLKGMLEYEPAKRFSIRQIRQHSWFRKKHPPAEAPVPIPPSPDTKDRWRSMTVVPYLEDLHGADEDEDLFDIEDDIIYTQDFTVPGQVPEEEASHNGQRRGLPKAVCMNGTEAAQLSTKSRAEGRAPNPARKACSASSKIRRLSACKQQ

In assay [2] the target is MLK1(h) (human) (UniProt P80192).
MLK1(h) (human), sequence (P80192 132-413 limits assumed): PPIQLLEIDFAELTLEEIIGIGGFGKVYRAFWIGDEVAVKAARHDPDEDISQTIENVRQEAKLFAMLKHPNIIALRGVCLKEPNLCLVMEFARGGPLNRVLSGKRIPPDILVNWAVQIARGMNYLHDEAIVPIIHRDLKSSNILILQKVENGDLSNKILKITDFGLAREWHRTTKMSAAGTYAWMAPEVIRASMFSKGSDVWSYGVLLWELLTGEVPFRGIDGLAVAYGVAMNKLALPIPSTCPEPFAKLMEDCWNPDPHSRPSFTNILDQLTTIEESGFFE
The target in assay [3] is EphA7(h) (human) (UniProt Q15375).
EphA7(h) (human), sequence (Q15375 577-998 limits assumed): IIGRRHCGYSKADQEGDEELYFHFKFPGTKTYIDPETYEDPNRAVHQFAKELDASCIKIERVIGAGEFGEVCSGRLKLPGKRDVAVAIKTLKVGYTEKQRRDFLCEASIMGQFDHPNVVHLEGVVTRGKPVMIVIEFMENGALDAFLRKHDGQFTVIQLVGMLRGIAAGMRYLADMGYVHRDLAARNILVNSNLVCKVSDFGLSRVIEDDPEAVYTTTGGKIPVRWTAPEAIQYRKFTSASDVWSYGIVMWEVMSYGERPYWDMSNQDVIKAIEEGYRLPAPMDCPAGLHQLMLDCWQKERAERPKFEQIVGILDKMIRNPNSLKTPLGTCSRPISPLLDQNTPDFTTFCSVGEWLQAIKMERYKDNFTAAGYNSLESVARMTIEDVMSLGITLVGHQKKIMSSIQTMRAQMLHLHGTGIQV
For assay [4], the target named is DAPK2(h) (human) (UniProt Q9UIK4).
DAPK2(h) (human), sequence (Q9UIK4 whole entry): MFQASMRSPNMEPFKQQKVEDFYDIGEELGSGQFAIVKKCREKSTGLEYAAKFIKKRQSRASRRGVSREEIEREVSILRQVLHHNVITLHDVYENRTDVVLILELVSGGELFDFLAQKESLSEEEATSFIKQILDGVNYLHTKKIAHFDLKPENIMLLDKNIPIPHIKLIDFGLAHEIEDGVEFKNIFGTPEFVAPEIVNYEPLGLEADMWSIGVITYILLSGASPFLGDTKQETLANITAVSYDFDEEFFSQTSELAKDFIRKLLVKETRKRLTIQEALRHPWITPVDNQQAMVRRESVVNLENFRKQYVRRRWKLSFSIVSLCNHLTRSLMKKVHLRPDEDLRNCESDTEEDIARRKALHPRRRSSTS
The target in assay [5] is CDK1/cyclinB(h) (human) (UniProt P06493).
CDK1/cyclinB(h) (human), sequence (P06493 whole entry, chain 1 of 2): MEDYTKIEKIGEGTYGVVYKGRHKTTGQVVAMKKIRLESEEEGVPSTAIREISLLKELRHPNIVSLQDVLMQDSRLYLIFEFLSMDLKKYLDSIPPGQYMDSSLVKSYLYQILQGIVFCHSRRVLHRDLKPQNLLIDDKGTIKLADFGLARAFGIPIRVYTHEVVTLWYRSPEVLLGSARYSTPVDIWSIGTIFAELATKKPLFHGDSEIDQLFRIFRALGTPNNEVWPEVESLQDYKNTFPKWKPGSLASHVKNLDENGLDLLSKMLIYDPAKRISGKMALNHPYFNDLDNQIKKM
CDK1/cyclinB(h) (human), sequence (P14635 whole entry, chain 2 of 2, further chain): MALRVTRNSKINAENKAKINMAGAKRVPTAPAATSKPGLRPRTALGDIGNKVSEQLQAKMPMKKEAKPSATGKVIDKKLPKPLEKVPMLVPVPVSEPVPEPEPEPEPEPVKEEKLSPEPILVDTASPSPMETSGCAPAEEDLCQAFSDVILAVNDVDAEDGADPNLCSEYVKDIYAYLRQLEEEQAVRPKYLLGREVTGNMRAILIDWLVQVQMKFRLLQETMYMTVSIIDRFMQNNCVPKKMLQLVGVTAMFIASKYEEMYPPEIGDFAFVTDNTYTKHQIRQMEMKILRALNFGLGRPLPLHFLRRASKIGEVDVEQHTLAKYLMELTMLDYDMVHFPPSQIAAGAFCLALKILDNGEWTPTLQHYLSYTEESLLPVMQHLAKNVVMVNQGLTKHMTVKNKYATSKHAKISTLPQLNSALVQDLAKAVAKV
The target of assay [6] is T2, BrSK2(h) (human) (UniProt Q8IWQ3).
T2 sequence (looked up): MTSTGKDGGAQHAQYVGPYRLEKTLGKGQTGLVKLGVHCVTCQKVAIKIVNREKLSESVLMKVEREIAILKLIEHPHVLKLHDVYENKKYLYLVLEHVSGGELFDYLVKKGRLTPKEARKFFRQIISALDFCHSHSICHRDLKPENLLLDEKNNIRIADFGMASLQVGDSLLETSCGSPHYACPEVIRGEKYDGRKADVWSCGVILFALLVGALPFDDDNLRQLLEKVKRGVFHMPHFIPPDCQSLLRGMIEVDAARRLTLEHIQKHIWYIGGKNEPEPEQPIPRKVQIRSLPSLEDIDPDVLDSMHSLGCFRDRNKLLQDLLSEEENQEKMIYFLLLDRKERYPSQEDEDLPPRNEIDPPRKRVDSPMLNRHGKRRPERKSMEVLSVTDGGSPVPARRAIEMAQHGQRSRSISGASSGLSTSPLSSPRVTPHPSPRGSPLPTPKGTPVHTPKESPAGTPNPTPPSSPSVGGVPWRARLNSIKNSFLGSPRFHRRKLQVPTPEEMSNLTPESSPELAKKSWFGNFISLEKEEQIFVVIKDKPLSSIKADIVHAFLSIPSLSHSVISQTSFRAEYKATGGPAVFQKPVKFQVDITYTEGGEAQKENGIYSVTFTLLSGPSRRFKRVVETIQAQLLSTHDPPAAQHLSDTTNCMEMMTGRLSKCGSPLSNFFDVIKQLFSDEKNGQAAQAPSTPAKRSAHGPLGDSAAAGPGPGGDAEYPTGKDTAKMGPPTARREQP

Assay [7] deals with GSK3α(h) (human) (UniProt P49840).
GSK3α(h) (human), sequence (P49840 whole entry): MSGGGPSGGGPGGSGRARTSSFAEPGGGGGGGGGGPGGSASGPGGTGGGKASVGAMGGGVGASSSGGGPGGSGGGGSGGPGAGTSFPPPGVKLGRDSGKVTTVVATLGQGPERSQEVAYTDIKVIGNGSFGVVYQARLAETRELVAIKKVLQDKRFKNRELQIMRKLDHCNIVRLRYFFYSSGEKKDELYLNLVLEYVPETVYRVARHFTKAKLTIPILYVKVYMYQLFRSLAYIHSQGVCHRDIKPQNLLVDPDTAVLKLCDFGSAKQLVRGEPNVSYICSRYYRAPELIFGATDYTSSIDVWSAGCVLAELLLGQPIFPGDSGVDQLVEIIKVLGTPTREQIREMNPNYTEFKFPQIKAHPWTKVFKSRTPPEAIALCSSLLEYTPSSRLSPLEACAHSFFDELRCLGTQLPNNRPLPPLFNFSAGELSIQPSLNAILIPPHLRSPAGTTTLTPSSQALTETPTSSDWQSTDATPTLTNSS
Assay [8] deals with PAK4(h) (human) (UniProt O96013).
PAK4(h) (human), sequence (O96013 whole entry): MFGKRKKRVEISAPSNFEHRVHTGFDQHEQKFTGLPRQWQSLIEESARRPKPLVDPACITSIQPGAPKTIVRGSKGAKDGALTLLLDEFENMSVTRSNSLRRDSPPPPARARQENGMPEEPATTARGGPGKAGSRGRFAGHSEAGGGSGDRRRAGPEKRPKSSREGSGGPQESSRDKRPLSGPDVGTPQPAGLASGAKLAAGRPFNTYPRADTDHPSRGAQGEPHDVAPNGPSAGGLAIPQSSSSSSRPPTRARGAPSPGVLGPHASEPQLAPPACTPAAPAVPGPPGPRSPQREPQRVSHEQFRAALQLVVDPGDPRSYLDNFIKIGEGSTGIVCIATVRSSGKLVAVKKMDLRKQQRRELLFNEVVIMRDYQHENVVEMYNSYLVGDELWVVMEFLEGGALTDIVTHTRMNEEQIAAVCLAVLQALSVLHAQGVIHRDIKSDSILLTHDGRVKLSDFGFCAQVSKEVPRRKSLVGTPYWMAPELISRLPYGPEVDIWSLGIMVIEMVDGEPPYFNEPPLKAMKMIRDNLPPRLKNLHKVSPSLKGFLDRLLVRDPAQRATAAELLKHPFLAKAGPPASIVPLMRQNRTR
The target of assay [9] is PRK2(h) (human) (UniProt Q16513).
PRK2(h) (human), sequence (Q16513 501-984 limits assumed): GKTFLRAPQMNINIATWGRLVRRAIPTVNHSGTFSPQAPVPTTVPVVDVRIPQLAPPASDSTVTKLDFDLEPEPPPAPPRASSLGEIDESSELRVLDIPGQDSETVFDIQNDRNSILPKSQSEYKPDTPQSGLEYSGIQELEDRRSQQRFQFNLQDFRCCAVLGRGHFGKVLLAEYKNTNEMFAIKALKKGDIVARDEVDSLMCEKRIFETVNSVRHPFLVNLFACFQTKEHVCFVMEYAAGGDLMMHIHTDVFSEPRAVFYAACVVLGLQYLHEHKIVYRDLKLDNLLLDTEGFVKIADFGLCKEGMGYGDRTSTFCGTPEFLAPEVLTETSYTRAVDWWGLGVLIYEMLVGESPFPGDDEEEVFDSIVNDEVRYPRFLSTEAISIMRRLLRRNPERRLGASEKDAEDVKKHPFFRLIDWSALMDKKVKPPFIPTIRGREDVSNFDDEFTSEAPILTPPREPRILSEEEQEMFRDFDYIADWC
The target in assay [10] is T3, Flt3(D835Y)(h) (human) (UniProt P36888).
T3 sequence (looked up): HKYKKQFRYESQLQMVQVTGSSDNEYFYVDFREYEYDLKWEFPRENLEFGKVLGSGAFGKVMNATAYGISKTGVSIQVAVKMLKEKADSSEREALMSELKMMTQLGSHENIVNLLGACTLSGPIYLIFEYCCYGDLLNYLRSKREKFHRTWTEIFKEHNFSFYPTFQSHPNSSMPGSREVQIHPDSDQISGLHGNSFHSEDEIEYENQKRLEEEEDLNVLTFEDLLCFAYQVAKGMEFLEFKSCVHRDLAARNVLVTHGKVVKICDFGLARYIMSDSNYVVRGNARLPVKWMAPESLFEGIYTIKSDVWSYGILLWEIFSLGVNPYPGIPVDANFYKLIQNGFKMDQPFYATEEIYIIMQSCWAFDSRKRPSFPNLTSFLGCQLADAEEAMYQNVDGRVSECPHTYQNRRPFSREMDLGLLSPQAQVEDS

Assay [11] has as its target T4, EphA8(h) (human) (UniProt P29322).
T4 sequence (looked up): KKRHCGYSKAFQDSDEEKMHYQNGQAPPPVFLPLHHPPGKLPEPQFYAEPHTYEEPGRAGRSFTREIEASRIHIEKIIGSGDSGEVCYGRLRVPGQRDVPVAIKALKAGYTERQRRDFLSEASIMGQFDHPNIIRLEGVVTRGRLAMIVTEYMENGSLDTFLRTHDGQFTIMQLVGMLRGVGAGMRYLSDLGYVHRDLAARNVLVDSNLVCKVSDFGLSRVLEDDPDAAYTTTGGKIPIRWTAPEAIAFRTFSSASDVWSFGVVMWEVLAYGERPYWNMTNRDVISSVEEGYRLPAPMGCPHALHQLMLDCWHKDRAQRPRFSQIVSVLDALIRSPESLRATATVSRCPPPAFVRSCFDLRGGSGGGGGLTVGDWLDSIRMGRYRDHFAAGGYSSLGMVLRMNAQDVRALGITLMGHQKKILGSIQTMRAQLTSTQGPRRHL

Assay [12] concerns the target GRK6(h) (human) (UniProt P43250).
Assay [13] has as its target FAK(h) (human) (UniProt Q05397).

FAK(h) (human), sequence (Q05397 whole entry): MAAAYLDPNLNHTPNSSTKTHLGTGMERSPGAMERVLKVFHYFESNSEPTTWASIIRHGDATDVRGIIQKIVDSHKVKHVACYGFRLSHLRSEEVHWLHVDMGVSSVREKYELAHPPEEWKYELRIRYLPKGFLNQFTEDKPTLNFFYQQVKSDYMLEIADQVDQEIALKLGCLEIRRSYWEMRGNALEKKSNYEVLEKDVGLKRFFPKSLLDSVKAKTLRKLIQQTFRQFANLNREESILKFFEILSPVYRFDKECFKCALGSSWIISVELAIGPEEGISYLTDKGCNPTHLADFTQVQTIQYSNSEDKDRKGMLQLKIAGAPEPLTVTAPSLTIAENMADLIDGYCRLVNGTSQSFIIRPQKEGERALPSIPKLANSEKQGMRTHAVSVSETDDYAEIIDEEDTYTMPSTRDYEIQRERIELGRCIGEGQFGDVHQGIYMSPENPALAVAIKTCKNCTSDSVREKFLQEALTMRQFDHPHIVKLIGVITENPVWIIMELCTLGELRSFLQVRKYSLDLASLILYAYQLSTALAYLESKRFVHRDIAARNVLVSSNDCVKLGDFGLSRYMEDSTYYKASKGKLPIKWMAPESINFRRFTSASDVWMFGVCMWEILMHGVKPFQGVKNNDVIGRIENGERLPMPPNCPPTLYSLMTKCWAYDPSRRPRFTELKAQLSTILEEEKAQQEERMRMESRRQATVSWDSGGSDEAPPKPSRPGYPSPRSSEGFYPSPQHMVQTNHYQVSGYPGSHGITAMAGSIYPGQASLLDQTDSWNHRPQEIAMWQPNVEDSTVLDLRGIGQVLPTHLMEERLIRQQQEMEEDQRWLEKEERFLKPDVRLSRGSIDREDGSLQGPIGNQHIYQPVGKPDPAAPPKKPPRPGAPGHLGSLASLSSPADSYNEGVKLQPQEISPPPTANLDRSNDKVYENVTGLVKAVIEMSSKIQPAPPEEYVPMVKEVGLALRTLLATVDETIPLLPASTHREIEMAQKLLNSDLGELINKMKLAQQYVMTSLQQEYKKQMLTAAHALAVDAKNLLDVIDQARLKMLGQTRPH
GRK6(h) (human), sequence (P43250 whole entry): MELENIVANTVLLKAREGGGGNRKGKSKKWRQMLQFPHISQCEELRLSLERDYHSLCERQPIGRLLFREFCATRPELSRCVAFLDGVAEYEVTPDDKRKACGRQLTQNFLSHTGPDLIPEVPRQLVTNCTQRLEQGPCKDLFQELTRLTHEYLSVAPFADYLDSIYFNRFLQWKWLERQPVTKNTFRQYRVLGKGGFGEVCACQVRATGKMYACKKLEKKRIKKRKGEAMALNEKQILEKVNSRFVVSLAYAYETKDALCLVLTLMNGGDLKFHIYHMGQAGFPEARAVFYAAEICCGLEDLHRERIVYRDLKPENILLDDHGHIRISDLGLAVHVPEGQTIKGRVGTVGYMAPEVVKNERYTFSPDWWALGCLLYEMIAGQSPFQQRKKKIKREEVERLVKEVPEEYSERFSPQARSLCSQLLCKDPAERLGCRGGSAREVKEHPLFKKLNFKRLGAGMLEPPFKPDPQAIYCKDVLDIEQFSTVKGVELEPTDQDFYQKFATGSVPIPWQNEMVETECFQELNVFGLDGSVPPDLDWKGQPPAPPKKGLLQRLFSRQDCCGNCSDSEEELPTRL

MMI-0500 (peptide): the % activity, 100 µM in [1] is 51%; in [2], 43%; in assay [3] it was 189%; in assay [4], 3%; in assay [5] it was 57%; in [6], 84%. Moreover, the % activity, 100 µM in [7] came out at 175%; in [8], 86%; in assay [9], 7%; in assay [10], 65%; in assay [11] it was 337%; in [12], 174%. In addition, in assay [13], the % activity, 100 µM was found to be 94%.

Source of the values: patent publication US20140072613A1, “Compositions and Methods for Treating Cutaneous Scarring” (priority 2012, published 2014).
